Experimental data published in PMC2694220 (Biochemistry, 2009).

Assays:
[1] = system: CC(=O)N[C@H]1[C@@H](OP(=O)(O)OP(=O)(O)OC[C@H]2O[C@@H](n3ccc(=O)[nH]c3=O)[C@H](O)[C@@H]2O)O[C@H](C(=O)O)[C@@H](O)[C@@H]1N; assay: purified protein; conditions: 1.5 mM AcCoA, 50 mM HEPES pH 7.0, 30 °C, BSA carrier
WbpE = WbpE (Pseudomonas aeruginosa, UniProt Q9HZ76); assay: capillary electrophoresis, coupled WbpB/WbpE reaction; assay type: biochemical; conditions: 25 mM L-glutamine in place of L-glutamate; otherwise same
WbpB = WbpB (Pseudomonas aeruginosa, UniProt G3XD23); assay: capillary electrophoresis of conversion to UDP-GlcNAc; assay type: biochemical; conditions: 10 mM α-KG, 50 mM HEPES pH 8.0, 30 °C, no WbpE
Sequence of WbpB (G3XD23 whole entry): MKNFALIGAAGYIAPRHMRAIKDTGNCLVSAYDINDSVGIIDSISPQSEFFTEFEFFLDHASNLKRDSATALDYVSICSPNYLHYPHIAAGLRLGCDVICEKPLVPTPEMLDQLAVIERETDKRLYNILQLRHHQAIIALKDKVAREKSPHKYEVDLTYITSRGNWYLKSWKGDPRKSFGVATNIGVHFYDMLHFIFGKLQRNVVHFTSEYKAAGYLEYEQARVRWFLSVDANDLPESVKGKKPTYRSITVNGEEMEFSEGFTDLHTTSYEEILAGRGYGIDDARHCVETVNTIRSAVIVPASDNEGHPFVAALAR

Sequence of WbpE (Q9HZ76 whole entry): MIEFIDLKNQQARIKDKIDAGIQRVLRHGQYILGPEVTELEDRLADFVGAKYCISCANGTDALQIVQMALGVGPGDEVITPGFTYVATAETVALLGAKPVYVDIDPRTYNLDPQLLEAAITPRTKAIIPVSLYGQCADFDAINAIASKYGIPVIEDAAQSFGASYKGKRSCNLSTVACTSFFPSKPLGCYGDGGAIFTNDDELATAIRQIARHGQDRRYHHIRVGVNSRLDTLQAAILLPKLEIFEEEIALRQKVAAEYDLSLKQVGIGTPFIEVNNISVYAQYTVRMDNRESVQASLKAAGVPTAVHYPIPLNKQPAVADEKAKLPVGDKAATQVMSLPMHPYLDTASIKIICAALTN

WbpD (Pseudomonas aeruginosa PAO1)
Km [1]: 107 ± 15 µM | kcat [1]: (2.9 ± 0.12) × 10^3 min^−1

NC(=O)CC[C@H](N)C(=O)O [L-glutamine]
% conversion at 25 mM (WbpE): 10%

CC(=O)N[C@H]1[C@@H](OP(=O)(O)OP(=O)(O)OC[C@H]2O[C@@H](n3ccc(=O)[nH]c3=O)[C@H](O)[C@@H]2O)O[C@H](C(=O)O)[C@@H](O)[C@@H]1O [UDP-GlcNAcA]
capillary electrophoresis of conversion to UDP-GlcNAc(3keto)A (WbpB): complete conversion of the UDP-GlcNAcA starting material to the UDP-GlcNAc(3keto)A product was observed by CE
